Measured values from US5780296.

Tested on: T1, REC2 recombinase (Ustilago maydis)
T1 sequence: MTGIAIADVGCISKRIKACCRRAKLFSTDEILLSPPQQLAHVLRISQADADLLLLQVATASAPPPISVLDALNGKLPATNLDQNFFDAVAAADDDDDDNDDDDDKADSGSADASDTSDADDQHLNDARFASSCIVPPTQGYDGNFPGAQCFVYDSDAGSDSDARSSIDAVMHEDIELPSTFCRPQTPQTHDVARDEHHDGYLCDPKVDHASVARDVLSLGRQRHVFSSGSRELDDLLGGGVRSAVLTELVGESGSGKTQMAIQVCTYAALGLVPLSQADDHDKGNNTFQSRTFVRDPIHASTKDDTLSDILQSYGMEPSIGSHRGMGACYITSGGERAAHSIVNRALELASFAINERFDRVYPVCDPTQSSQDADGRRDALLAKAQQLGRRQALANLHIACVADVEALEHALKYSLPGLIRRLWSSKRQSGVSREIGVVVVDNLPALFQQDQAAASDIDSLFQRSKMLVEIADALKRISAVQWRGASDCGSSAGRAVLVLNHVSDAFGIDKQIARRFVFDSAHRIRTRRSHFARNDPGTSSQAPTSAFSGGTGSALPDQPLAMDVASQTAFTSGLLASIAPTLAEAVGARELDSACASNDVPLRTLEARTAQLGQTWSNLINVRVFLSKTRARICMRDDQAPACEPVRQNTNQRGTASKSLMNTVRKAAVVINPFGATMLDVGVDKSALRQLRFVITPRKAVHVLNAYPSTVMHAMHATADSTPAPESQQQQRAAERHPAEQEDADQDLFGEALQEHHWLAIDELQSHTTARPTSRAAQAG
Settings: DNA-dependent ATPase turnover; 10 mM MgCl2, pH 7.5, 37 C

With M13 single-stranded circular DNA the activity was 5.3 min⁻¹.
